Earlier results as cited in patent publication US12485093B2, “Composition for use as an antiviral in the form of nasal drops and in nebulisers” (DERMOPARTNERS, S.L., priority 2021, dated 2025).
Like-named read-outs stand apart in the source and are kept apart here.

Legend:
SARS-CoV-2 [1] = conditions: African green monkey kidney epithelial cells, 1 mg/ml
SARS-CoV-2 [2] = conditions: adenocarcinoma human alveolar basal epithelial cells (A549), 1 mg/ml
[3] = system: viral entry into host cells; conditions: by interacting with viral and/or cell surface receptors

B1: lactoferrin (protein, UniProt P02788 20-710, looked up)
Lactotransferrin: GRRRSVQWCAVSQPEATKCFQWQRNMRKVRGPPVSCIKRDSPIQCIQAIAENRADAVTLDGGFIYEAGLAPYKLRPVAAEVYGTERQPRTHYYAVAVVKKGGSFQLNELQGLKSCHTGLRRTAGWNVPIGTLRPFLNWTGPPEPIEAAVARFFSASCVPGADKGQFPNLCRLCAGTGENKCAFSSQEPYFSYSGAFKCLRDGAGDVAFIRESTVFEDLSDEAERDEYELLCPDNTRKPVDKFKDCHLARVPSHAVVARSVNGKEDAIWNLLRQAQEKFGKDKSPKFQLFGSPSGQKDLLFKDSAIGFSRVPPRIDSGLYLGSGYFTAIQNLRKSEEEVAARRARVVWCAVGEQELRKCNQWSGLSEGSVTCSSASTTEDCIALVLKGEADAMSLDGGYVYTAGKCGLVPVLAENYKSQQSSDPDPNCVDRPVEGYLAVAVVRRSDTSLTWNSVKGKKSCHTAVDRTAGWNIPMGLLFNQTGSCKFDEYFSQSCAPGSDPRSNLCALCIGDEQGENKCVPNSNERYYGYTGAFRCLAENAGDVAFVKDVTVLQNTDGNNNEAWAKDLKLADFALLCLDGKRKPVTEARSCHLAMAPNHAVVSRMDKVERLKQVLLHQQAKFGRNGSDCPDKFCLFQSETKNLLFNDNTECLARLHGKTTYEKYLGPQYVAGITNLKKCSTSPLLEACEFLRK
notes: naturally occurring, non-toxic glycoprotein, multifunctional protein of the immune system
inhibition of SARS-CoV-2 (SARS-CoV-2 [1]): capable of inhibiting SARS-CoV-2
inhibition of SARS-CoV-2 (SARS-CoV-2 [2]): capable of inhibiting SARS-CoV-2
block of viral entry into host cells [3]: managed to block viral entry into host cells
effect on efficacy of remdesivir and hydroxychloroquine (SARS-CoV-2 infection): potentiated the efficacy of both remdesivir and hydroxychloroquine
IC50 (SARS-CoV-2 infection; read-out: IC50 of inhibition of SARS-CoV-2 infection): 308 nM
